Values belong to the compound of their own block, whether it stands above or below them.
Tests used:
[1] = system: classical pathway-mediated hemolytic activity (thioester of C3); settings: read-out: 50% inhibitory concentration, classical pathway-mediated hemolytic activity; cited from earlier work
[2] = system: alternative pathway-mediated hemolytic activity (thioester of C3); settings: read-out: 50% inhibitory concentration, alternative pathway-mediated hemolytic activity; cited from earlier work
C3 = target: T1, C3 (Homo sapiens, UniProt P01024); experiment: Phage clone binding ELISA, immobilized C3; settings: 2 μg coated, 1 hour 22° C.
T1 construct: purified from normal human plasma in accordance with well known procedures; from tissue; host or cells: normal human plasma (C3, factor B)
Protocol: (§1) Microtiter wells were coated with 2 μg of C3, C3b, C3c or C3d, saturated with blocking buffer, washed with PBS (pH 7.4) containing 0.05% Tween 20, and incubated 1 hour at 22° C. with a positive (clone 9) or negative (clone 1) clone. Binding was inhibited by adding 250 μg/ml of aggregated C3 in PBS, pH 7.4. Bound M13 phage particles were detected by peroxidase-coupled anti-M13 antibody and ABTS peroxidase substrate. Diagonally lined bars represent peroxidase-coupled anti-M13 antibody bound non-specifically to the plate; cross-hatched bars represent clone 9 bound to C3 or C3 fragments; horizontally lined bars represent clone 9 bound to C3 or C3 fragments in the presence of 250 μg/ml of aggregated C3; and vertically lined bars represent clone 1 bound to C3 or C3 fragments.
(§2) The C3-binding phage was isolated by screening the phage library described in Example 3. Microtiter well plates (Nunc Inc., Naperville, Ill.) were coated overnight with 20 μg of C3b in PBS at 4° C. and blocked with PBS containing 1% BSA for 30 minutes at 22° C. […] The amplified phage mixture obtained after the third round of amplification was plated, and positive phage were identified by confirming their binding to C3b in an ELISA, in which bound phage were detected by peroxidase-labeled anti-M13 antibody (Pharmacia). […]

C3b = target: T2, C3b (Homo sapiens, UniProt P01024); experiment: Phage clone binding ELISA, immobilized C3b; settings: 2 μg coated, 1 hour 22° C.
T2 construct: from tissue; host or cells: normal human plasma; C3 cleaved with trypsin, Mono Q purified
Protocol: as §1, §2

C3c = target: T3, C3c (Homo sapiens, UniProt P01024); experiment: Phage clone binding ELISA, immobilized C3c; settings: 2 μg coated, 1 hour 22° C.
T3 construct: C3c, 135,300 Mr fragment of C3 generated using elastase; from tissue; host or cells: normal human plasma; C3 treated with elastase, Mono Q purified
Protocol: as §1, §2

C3d = target: T4, C3d (Homo sapiens, UniProt P01024); experiment: Phage clone binding ELISA, immobilized C3d; settings: 2 μg coated, 1 hour 22° C.
T4 construct: C3d, 35,000 Mr fragment of C3 generated using elastase; from tissue; host or cells: normal human plasma; C3 treated with elastase, Mono Q purified
Protocol: as §1, §2

complement = settings: in vivo; cited from earlier work

T4 sequence (P01024 1002-1303 limits assumed): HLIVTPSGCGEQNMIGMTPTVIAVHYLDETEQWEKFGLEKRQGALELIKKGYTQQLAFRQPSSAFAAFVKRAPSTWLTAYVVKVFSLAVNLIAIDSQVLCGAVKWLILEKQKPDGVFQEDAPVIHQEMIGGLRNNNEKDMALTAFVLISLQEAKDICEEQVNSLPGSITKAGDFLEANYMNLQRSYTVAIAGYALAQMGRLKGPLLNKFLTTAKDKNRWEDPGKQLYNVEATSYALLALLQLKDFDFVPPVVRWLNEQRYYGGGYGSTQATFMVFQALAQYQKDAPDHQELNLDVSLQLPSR
T3 sequence (P01024 23-667 limits assumed): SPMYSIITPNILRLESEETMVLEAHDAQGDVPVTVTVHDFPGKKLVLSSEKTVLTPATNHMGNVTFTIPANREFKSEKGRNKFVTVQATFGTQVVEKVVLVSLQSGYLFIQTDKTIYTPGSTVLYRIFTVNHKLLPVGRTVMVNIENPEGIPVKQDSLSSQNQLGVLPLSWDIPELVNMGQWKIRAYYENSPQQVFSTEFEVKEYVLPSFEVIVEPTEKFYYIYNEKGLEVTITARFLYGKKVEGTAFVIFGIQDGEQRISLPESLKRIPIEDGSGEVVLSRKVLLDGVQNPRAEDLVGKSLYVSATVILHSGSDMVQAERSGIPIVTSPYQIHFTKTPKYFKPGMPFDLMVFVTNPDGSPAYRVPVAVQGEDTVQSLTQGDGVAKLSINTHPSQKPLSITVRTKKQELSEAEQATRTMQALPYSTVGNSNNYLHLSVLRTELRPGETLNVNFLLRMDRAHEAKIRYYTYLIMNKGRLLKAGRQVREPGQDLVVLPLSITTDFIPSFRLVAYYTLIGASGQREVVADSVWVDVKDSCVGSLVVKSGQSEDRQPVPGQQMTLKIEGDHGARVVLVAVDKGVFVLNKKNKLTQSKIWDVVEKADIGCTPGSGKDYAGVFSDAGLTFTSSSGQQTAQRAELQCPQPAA
T3 sequence (P01024 749-954 limits assumed): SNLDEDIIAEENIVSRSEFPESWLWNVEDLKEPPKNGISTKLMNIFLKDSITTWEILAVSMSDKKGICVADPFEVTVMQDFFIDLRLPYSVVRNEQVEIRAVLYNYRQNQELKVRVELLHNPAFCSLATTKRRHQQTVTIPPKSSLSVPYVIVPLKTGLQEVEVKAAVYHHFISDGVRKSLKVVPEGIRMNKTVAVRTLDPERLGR
T3 sequence (P01024 1321-1663 limits assumed): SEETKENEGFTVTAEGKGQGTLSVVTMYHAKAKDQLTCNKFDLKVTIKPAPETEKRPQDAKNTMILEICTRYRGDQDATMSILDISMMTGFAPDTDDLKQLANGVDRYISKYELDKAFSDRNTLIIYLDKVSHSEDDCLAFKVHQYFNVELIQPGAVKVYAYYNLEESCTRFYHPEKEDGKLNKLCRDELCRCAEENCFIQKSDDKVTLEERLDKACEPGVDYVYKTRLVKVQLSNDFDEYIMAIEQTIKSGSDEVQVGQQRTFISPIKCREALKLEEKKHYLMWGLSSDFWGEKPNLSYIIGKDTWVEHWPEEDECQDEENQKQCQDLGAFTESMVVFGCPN
T1 sequence (P01024 23-667 limits assumed): as the sequence (P01024 23-667 limits assumed) above
T1 sequence (P01024 672-1663 limits assumed): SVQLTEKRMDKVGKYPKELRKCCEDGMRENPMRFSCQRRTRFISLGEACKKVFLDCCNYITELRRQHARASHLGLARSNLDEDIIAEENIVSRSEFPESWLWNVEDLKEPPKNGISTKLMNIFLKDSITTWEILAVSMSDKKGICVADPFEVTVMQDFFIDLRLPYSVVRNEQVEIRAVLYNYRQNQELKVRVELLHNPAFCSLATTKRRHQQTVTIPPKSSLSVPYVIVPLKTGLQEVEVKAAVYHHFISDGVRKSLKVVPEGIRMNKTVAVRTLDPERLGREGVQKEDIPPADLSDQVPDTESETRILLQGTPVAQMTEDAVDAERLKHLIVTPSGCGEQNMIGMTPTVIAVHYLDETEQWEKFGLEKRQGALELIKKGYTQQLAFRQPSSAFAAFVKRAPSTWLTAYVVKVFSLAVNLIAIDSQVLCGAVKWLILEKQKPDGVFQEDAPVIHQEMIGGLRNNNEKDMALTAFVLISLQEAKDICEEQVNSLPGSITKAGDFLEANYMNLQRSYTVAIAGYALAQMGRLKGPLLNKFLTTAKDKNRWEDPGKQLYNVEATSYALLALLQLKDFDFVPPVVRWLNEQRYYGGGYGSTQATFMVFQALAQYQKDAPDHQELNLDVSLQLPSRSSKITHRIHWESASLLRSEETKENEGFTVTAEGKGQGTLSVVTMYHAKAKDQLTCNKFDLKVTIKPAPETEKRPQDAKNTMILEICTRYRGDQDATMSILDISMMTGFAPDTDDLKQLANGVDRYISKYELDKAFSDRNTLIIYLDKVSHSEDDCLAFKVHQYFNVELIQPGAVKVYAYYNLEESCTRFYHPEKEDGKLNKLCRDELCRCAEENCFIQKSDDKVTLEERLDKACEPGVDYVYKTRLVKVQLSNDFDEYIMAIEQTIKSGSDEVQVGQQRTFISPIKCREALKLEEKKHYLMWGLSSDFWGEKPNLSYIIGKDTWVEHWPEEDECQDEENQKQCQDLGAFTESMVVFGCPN
T2 sequence (P01024 23-667 limits assumed): as the sequence (P01024 23-667 limits assumed) above
T2 sequence (P01024 749-1663 limits assumed): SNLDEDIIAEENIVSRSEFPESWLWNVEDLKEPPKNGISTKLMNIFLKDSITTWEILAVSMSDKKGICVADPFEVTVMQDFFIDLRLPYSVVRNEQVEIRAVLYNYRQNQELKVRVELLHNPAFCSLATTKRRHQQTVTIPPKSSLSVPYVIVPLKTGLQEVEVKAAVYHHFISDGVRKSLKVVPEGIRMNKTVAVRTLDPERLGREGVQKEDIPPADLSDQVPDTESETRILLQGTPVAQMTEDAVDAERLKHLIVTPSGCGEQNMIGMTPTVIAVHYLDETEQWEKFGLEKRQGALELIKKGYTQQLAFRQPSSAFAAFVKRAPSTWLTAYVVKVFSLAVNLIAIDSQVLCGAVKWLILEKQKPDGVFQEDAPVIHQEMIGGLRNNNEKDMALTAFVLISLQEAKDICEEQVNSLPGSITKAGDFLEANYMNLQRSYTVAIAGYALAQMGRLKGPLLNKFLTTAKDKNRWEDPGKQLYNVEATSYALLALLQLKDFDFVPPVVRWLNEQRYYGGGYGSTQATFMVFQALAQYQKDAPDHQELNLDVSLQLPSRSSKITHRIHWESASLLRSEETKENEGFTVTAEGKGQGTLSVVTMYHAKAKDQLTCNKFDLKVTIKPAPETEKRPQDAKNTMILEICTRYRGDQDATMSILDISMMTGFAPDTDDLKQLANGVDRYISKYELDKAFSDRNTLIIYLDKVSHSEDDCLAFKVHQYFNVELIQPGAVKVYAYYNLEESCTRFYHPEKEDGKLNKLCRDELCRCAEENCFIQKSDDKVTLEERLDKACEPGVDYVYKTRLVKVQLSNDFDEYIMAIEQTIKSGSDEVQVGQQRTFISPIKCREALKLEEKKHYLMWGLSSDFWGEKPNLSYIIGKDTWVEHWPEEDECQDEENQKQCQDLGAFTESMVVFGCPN

Compound: O=C(NO)c1ccccc1O [salicyl hydroxamate]
IC50 [1]: 280 µM
IC50 [2]: 33 µM

binding of phage clone to C3 (C3): bound
binding of phage clone to C3b (C3b): bound
binding of phage clone to C3c (C3c): bound
binding of phage clone to C3d (C3d): not to C3d
Compound: SSICVVQDWGHHRCTAGHMANLTSHASAIR [Clone 9]

Compound: sCR1: soluble form of CR1 (complement receptor 1)
complement suppression in complement-dependent disease models (complement): suppresses complement
